By Km is commonly meant the concentration of substrate that gives half-maximal velocity. One may read the kcat as the maximal rate divided by the concentration of active sites.

This passage reports Km and kcat results from publication PMC8999356, “In Vitro One-Pot 3-Hydroxypropanal Production from Cheap C1 and C2 Compounds” (International Journal of Molecular Sciences, 2022).

Substrate in series [1]: C=O
In words: aldol condensation, 3-HPA quantified by HPLC after O-benzylhydroxylamine derivatisation, Michaelis-Menten fit. The following applies: co-substrate acetaldehyde, 20 mM Kpi pH 7.0, 40 °C. The format is biochemical, Thermotoga maritima.

Substrate in series [2]: CC=O
Described as above. The class given is biochemical, Thermotoga maritima. The following applies: co-substrate formaldehyde, 20 mM Kpi pH 7.0, 40 °C.

B1: DERATma (Thermotoga maritima MSB8) (protein)
chain: MIEYRIEEAVAKYREFYEFKPVRESAGIEDVKSAIEHTNLKPFATPDDIKKLCLEARENRFHGVCVNPCYVKLAREELEGTDVKVVTVVGFPLGANETRTKAHEAIFAVESGADEIDMVINVGMLKAKEWEYVYEDIRSVVESVKGKVVKVIIETCYLDTEEKIAACVISKLAGAHFVKTSTGFGTGGATAEDVHLMKWIVGDEMGVKASGGIRTFEDAVKMIMYGADRIGTSSGVKIVQGGEERYGG
As for B1, in series [1], the Km worked out at 2.41 mM and the kcat worked out at 0.00817 s⁻¹. Also, in series [2], the Km was found to be 6.95 mM and the kcat stood at 0.0085 s⁻¹.
